The source of these data is the FLAb antibody collection (doi:10.7554/elife.23156).

To fix the notation:
B1: scFv; the commonest letter at each place (parent)
chain 1: EVKLDETGGGLVQPGRPMKLSCVASGFTFSDYWMNWVRQSPEKGLEWVAQIRNKPYNYETYYSDSVKGRFTISRDDSKSSVYLQMNNLRVEDMGIYYCTGSYYGMDYWGQGTSVTVS
chain 2: DVVMTQTPLSLPVSLGDQASISCRSSQSLVHSNGNTYLRWYLQKPGQSPKVLIYKVSNRFSGVPDRFSGSGSGTDFTLKISRVEAEDLGVYFCSQSTHVPWTFGGGTKLEIK

Where only a bound is given, the exact number is not on record here.

The data set “fluorescein” covers variants of B1. The data set can be described thus: Kd (Tite-Seq). Particulars: with fluorescein; format: scFv 4-4-20, heavy + light.
Data set [1] covers variants of B1. Kind of data set: yeast surface expression (ratio to wild type); higher = more expressed. To be noted: format: scFv 4-4-20, heavy + light.

One may read the Kd as the equilibrium constant for the complex coming apart. chain 1 Y32P N35Y: the Kd with fluorescein is at least 10 µM. For the same variant, the yeast surface expression in data set [1] turned out to be 0.488.
Take chain 1 Y32P N35K: the dissociation constant (Kd) with fluorescein worked out at 0.195 µM. The yeast surface expression in data set [1] was found to be 0.466.
Turning to chain 1 Y32S W33S, the Kd with fluorescein is at least 10 µM. Moreover, the yeast surface expression in data set [1] turned out to be 0.838.
On the same counts, the results for chain 1 Y32S W33F are at least 10 µM and 0.984.
On the same counts, the results for chain 1 Y32R M34S are at least 10 µM and 0.191.
On the same counts, the results for chain 1 Y32Q W36N V37K are at least 10 µM and 0.902.
Take chain 1 Y102E M105P: the dissociation constant Kd with fluorescein was at least 10 µM. The yeast surface expression in data set [1] worked out at 0.839.
Consider chain 1 Y102E M105A, for which, in the data set with fluorescein, the dissociation constant Kd is at least 10 µM. Also, in data set [1], the yeast surface expression came out at 0.815.
On the same counts, the results for chain 1 Y32L W36Q are at least 10 µM and 0.875.
On the same counts, the results for chain 1 Y32L W36Y are 3.74 µM and 0.682.
For the variant chain 1 Y32L W36F, the equilibrium dissociation constant (Kd) with fluorescein is at least 10 µM. Further, the yeast surface expression in data set [1] turned out to be 0.728.
On the same counts, the results for chain 1 Y32T M34E are at least 10 µM and 0.451.
On the same counts, the results for chain 1 Y32T W36R are at least 10 µM and 0.193.
For chain 1 Y102A Y107P, the Kd in the data set with fluorescein was at least 10 µM. Moreover, the yeast surface expression in data set [1] turned out to be 0.707.
As for chain 1 Y102F G104K, the Kd with fluorescein is at least 10 µM. In data set [1], the yeast surface expression is 0.81.
Take chain 1 Y102F G104H: the dissociation constant Kd with fluorescein is at least 10 µM. The yeast surface expression in data set [1] was 0.927.
The matching figures for chain 1 Y102C G104D: at least 10 µM and 0.919.
On the same counts, the results for chain 1 Y102C G104H are at least 10 µM and 0.609.
chain 1 Y102E G109K: the Kd in the data set with fluorescein was at least 10 µM. Besides, the yeast surface expression in data set [1] was 0.317.
For chain 1 Y102E G109N, the Kd with fluorescein was at least 10 µM. The yeast surface expression in data set [1] came out at 0.382.
The matching figures for chain 1 Y32V W33N: at least 10 µM and 1.16.
As for chain 1 Y102D D106Q, in the data set with fluorescein, the Kd was at least 10 µM. Further, the yeast surface expression in data set [1] is 0.733.
The matching figures for chain 1 Y102D D106T: at least 10 µM and 1.12.
Turning to chain 1 W108Y, in the data set with fluorescein, the Kd was at most 0.000316 µM. Besides, in data set [1], the yeast surface expression is 0.963.
On the same counts, the results for chain 1 W108M are at most 0.000316 µM and 1.
For the variant chain 1 W108T, the Kd with fluorescein was 0.000399 µM. In addition, the yeast surface expression in data set [1] came to 0.775.
Take chain 1 W108Q: the Kd in the data set with fluorescein is 0.0233 µM. Moreover, the yeast surface expression in data set [1] was 0.506.
Regarding chain 1 W108P, in the data set with fluorescein, the Kd was 0.00272 µM. Further, the yeast surface expression in data set [1] stood at 0.625.
The matching figures for chain 1 W108S: 0.0158 µM and 0.51.
chain 1 W108N: in the data set with fluorescein, the Kd turned out to be 0.031 µM. Also, the yeast surface expression in data set [1] turned out to be 0.468.
The matching figures for chain 1 W108V: at most 0.000316 µM and 0.831.
On the same counts, the results for chain 1 W108R are at least 10 µM and 0.455.
The matching figures for chain 1 Y32S N35G V37K: at least 10 µM and 0.649.
Consider chain 1 Y102C D106L, for which the Kd with fluorescein is at least 10 µM. The yeast surface expression in data set [1] turned out to be 0.306.
As to chain 1 Y32I W33T N35A, the Kd in the data set with fluorescein is at least 10 µM. Moreover, in data set [1], the yeast surface expression came to 0.824.
With chain 1 Y102A D106L, in the data set with fluorescein, the Kd was at least 10 µM. Also, the yeast surface expression in data set [1] worked out at 0.691.
On to chain 1 Y102A D106S, for which, in the data set with fluorescein, the Kd amounted to 0.0038 µM. In addition, the yeast surface expression in data set [1] came to 1.06.
Regarding chain 1 Y32R W33M, in the data set with fluorescein, the equilibrium dissociation constant (Kd) was at least 10 µM. Also, the yeast surface expression in data set [1] came to 0.809.
On to chain 1 Y32R W33I, for which the equilibrium dissociation constant (Kd) with fluorescein is at least 10 µM. Moreover, in data set [1], the yeast surface expression turned out to be 0.763.
The matching figures for chain 1 Y32R W33H W36S: at least 10 µM and 0.723.
As for chain 1 Y32W M34N, the dissociation constant (Kd) with fluorescein was 0.205 µM. The yeast surface expression in data set [1] turned out to be 0.386.
As to chain 1 Y32W M34W, the dissociation constant Kd with fluorescein is at least 10 µM. Besides, the yeast surface expression in data set [1] came to 0.838.
The matching figures for chain 1 Y32S W36F: 5.96 µM and 0.853.
On the same counts, the results for chain 1 Y32Q W33V N35E are 7.72 µM and 1.51.
As for chain 1 Y102D W108M, the Kd with fluorescein is 0.000604 µM. Also, the yeast surface expression in data set [1] was 0.926.
chain 1 Y102D W108T: in the data set with fluorescein, the Kd stood at 0.00917 µM. Moreover, the yeast surface expression in data set [1] was 0.785.
On the same counts, the results for chain 1 Y32F M34L are 0.0221 µM and 0.781.
chain 1 Y32F M34F: the Kd in the data set with fluorescein was found to be 0.00561 µM. In data set [1], the yeast surface expression stood at 0.862.
On the same counts, the results for chain 1 Y32F M34Q are at least 10 µM and 0.502.
Turning to chain 1 Y32M V37T, the dissociation constant Kd with fluorescein is at least 10 µM. For the same variant, the yeast surface expression in data set [1] was found to be 0.538.
On the same counts, the results for chain 1 Y32E W33T are at least 10 µM and 0.889.
Regarding chain 1 Y32E W33K, the dissociation constant Kd in the data set with fluorescein was at least 10 µM. The yeast surface expression in data set [1] was found to be 0.742.
The matching figures for chain 1 Y32M W33V: at least 10 µM and 0.941.
Consider chain 1 Y32M W33E, for which the equilibrium dissociation constant (Kd) with fluorescein is at least 10 µM. For the same variant, the yeast surface expression in data set [1] came to 1.18.
For chain 1 Y32K V37S, the Kd with fluorescein is at least 10 µM. In data set [1], the yeast surface expression turned out to be 0.852.
On the same counts, the results for chain 1 Y32K V37T are at least 10 µM and 0.623.
Take chain 1 Y32K V37R: in the data set with fluorescein, the Kd is at least 10 µM. Also, in data set [1], the yeast surface expression is 1.18.
The matching figures for chain 1 Y32A M34E V37C: at least 10 µM and 0.299.
